In US20030100068A1 one finds surface residence or internalization of RANK on primary osteoblasts exposed to 5 nM ligand (confocal microscopy, anti-RANK staining against membrane dye) data, which are given here for two substances.

The test deals with RANK (Receptor Activator of NF-kappa B) on primary murine osteoblasts (murine (primary murine osteoblasts)) (UniProt O35305). The test can be described thus: cell-based or functional assay.
UniProt O35305, sequence (O35305 31-625): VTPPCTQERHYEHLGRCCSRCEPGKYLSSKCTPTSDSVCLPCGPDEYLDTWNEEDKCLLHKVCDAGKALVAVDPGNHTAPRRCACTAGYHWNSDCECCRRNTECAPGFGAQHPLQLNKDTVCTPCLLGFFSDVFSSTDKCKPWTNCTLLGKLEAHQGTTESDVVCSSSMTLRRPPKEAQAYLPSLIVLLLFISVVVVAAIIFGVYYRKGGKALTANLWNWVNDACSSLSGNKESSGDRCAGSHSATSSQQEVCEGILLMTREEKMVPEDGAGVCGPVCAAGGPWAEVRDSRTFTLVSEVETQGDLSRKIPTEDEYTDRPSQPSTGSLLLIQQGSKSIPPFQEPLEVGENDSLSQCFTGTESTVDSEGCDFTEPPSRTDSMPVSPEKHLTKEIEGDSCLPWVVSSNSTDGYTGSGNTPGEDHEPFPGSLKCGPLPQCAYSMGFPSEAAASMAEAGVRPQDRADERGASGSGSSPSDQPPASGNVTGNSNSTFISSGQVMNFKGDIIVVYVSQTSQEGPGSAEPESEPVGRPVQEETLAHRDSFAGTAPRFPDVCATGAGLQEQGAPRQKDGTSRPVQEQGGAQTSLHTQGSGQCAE

“GST-RANKL (fusion product of the external domain of RANKL and glutathione S-transferase) (from UniProt P08515) (ligand)” had a surface residence or internalization of RANK on primary osteoblasts exposed to 5 nM ligand (confocal microscopy, anti-RANK staining against membrane dye) greater than 1 h.

Take “cleaved RANKL (GST removed from GST-RANKL with human rhinovirus 3C protease) (ligand)”: the surface residence or internalization of RANK on primary osteoblasts exposed to 5 nM ligand (confocal microscopy, anti-RANK staining against membrane dye) is less than 1 h.
